The data set concerns the molecule itself. In words: crystal structure; sitting-drop vapour diffusion at 20 °C; EUGO 15 mg/mL in 10 mM Tris-HCl pH 7.5 with 24 % PEG6000, 0.1 M Tris-HCl pH 8.0; crystals soaked with isoeugenol; two subunits in the asymmetric unit.

B1: Eugenol oxidase (EUGO) from Rhodococcus jostii RHA1 (enzyme, UniProt Q0SBK1 1-526, looked up)
chain: MTRTLPPGVSDERFDAALQRFRDVVGDKWVLSTADELEAFRDPYPVGAAEANLPSAVVSPESTEQVQDIVRIANEYGIPLSPVSTGKNNGYGGAAPRLSGSVIVKTGERMNRILEVNEKYGYALLEPGVTYFDLYEYLQSHDSGLMLDCPDLGWGSVVGNTLDRGVGYTPYGDHFMWQTGLEVVLPQGEVMRTGMGALPGSDAWQLFPYGFGPFPDGMFTQSNLGIVTKMGIALMQRPPASQSFLITFDKEEDLEQIVDIMLPLRINMAPLQNVPVLRNIFMDAAAVSKRTEWFDGDGPMPAEAIERMKKDLDLGFWNFYGTLYGPPPLIEMYYGMIKEAFGKIPGARFFTHEERDDRGGHVLQDRHKINNGIPSLDELQLLDWVPNGGHIGFSPVSAPDGREAMKQFEMVRNRANEYNKDYAAQFIIGLREMHHVCLFIYDTAIPEAREEILQMTKVLVREAAEAGYGEYRTHNALMDDVMATFNWGDGALLKFHEKIKDALDPNGIIAPGKSGIWSQRFRGQNL
modifications: FAD covalently bound: bond between His390 and the C8M atom of the flavin ring
notes: eugenol oxidase (EUGO), flavoprotein oxidase of the VAO family, Rhodococcus jostii RHA1; source: E. coli culture
As to B1, the stoichiometry N (as a rule, the number of molecules, sites or subunits per partner or assembly) was 2.

The record behind these values is publication PMC5089669, “Biocatalytic Properties and Structural Analysis of Eugenol Oxidase from Rhodococcus jostii RHA1: A Versatile Oxidative Biocatalyst” (Chembiochem, 2016).
